Reference: patent US20190233823 (AEROVIRUS TECHNOLOGIES INC., published 2019)

B1: APT3Histo1 (ssDNA)
DNA: GCCTGTTGTGAGCCTCCTAACCGCACGTGGGTATTCTAAGTGCGGTAGCTCAATGGTGAGCGATGAGCATCATGCTTATTCTTGTCTCCC
B2: APT3Cooc10 (ssDNA)
DNA: GCCTGTTGTGAGCCTCCTAACGGGTATGACTACAGATGCAGGGCGGCCTGTAGCCTTGCATTGACAAGGGCATGCTTATTCTTGTCTCCC
B3: APT3Cooc3 (ssDNA)
DNA: GCCTGTTGTGAGCCTCCTAACTAGCTCGTAGAAAAAAAATATAGCGTGTGCTGGGACTGCTCGGGATTGCGGACACATGCTTATTCTTGTCTCCC

Target: P97 cilium adhesin ectodomain fragment (P97 peptidic complex, SELEX target section 768-925) (Mycoplasma hyopneumoniae)
Test: ELONA
Settings: tags: His (histidine labelled, Ni-NTA captured)
Protocol: Selected ssDNA molecules from each individual clone were biotinylated using the B-T3 which is same sequence with 5′ primer (T3 primer), and Klenow fragment (2 unit/ml). To prepare single stranded biotin conjugated APT3Cooc10 aptamer for the reverse screening. T3 Primer was Biotin labelled. A 96-well flat bottom ELISA plate was prepared by coating each well with 100 μl of streptavidin (100 μg/ml) diluted in 0.1 M NaHCO₃ following by a 37° C. overnight incubation. Following several washings with PBS, wells were blocked with 200 μl of PBS containing 1% BSA for 2 hours at room temperature and subsequent washing three times with PBS-T (10 mM PBS containing 0.05% (v/v) Tween-20). Thereafter, 100 μl of 2.5 pmole/100 μl biotinylated-ssDNA were added to the wells and incubated at 37° C. for 2 hours followed by washing four times with PBS-T. T3 primer was used as negative control. Following washing, 100 μl of fluid containing 2 μg histidine labelled P97 peptidic complex were added to the indicated wells and incubated at 37° C. for 2 hours. The wells were then washed for 4 times with PBS-T. The reverse screening assay was completed using the DAKO Mycoplasma Hyopneumoniae ELISA tests (K004311-9 kit, Oxoid Ltd, UK).

Binding result, binds:
B1
B2
B3
